The values below come from article PMC9482650, “Quantitative fragmentomics allow affinity mapping of interactomes” (Nature Communications, 2022).

Broadly, the pKd is the Kd on a negative log10 scale, so that one unit is a factor of ten.

Holding throughout (assay): holdup assay
What all share (design): key: below the threshold = too weak to quantify, mostly under pKd 3.1 to 4

The target in one test is T1, LIN7C, Q9NUP9.
T1 sequence (Q9NUP9 88-185, limits assumed, looked up): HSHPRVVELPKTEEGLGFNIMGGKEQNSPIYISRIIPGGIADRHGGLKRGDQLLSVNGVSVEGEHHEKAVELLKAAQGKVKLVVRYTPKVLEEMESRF

A further test has as its target T2, APBA1_2, Q02410.
T2 sequence (Q02410 742-832, limits assumed, looked up): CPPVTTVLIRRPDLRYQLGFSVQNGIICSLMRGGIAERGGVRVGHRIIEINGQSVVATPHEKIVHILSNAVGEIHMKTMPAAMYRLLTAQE

A further test concerns the target DLG1_3, Q12959.
[1] abbreviates: plain residues with an end cap or a label only (N-terminal biotin on a linker: ttds).
Setting [2] is: plain residues with an end cap or a label only (N-terminal biotin on a linker: ado-ado).
Where [3] appears, read: plain residues with an end cap or a label only (N-terminal biotin on a linker: ahx).
Where [4] appears, read: plain residues with an end cap or a label only (N-terminal biotin on a linker: ado-ado, ttds).

Sequence of DLG1_3, Q12959 (Q12959 457-571): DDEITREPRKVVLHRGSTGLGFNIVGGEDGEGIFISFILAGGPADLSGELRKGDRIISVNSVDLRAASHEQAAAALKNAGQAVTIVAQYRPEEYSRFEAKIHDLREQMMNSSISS

Turning to PFRSRSPSEV [GPR6, P46095], the pKd with LIN7C, Q9NUP9 (setting [1]) worked out at 3.63; in the test with APBA1_2, Q02410 (setting [1]), 3.83; with DLG1_3, Q12959 (setting [1]), 3.81.

On to PDSYHRRDFW [U2AF2, P26368], for which the negative logarithm of the Kd (pKd) entry with LIN7C, Q9NUP9 (setting [2]) is “below the threshold”; with APBA1_2, Q02410 (setting [2]) it was “below the threshold”; in the test with DLG1_3, Q12959 (setting [2]), 3.72.

In the case of ADENEQVSAV [RAPGEF6, Q8TEU7], the pKd result with LIN7C, Q9NUP9 (setting [3]) is “below the threshold”; with APBA1_2, Q02410 (setting [3]), 3.94; in the test with DLG1_3, Q12959 (setting [3]) it was “below the threshold”.

With KEYDDELTFF [USH1C, Q9Y6N9], the negative logarithm of the Kd (pKd) result in the test with LIN7C, Q9NUP9 (setting [3]) was “below the threshold”; with APBA1_2, Q02410 (setting [3]), “below the threshold”; in the test with DLG1_3, Q12959 (setting [3]), “below the threshold”.

As for SKKNELFSNL [NHERF1, O14745], the negative logarithm of the Kd (pKd) entry in the test with LIN7C, Q9NUP9 (setting [3]) is “below the threshold”; with APBA1_2, Q02410 (setting [3]) it was 3.48; in the test with DLG1_3, Q12959 (setting [3]), “below the threshold”.

For the molecule FVETQHQTQV [FAT3, Q8TDW7], the pKd result with LIN7C, Q9NUP9 (setting [1]) is “below the threshold”; in the test with APBA1_2, Q02410 (setting [1]) it was 3.9; in the test with DLG1_3, Q12959 (setting [1]), 3.95.

Consider IGHEDLETAV [DGKI, O75912], for which the pKd in the test with LIN7C, Q9NUP9 (setting [2]) stood at 4.57; with APBA1_2, Q02410 (setting [2]), 4.03; in the test with DLG1_3, Q12959 (setting [2]) it was 3.68.

Regarding HSATSVHTSV [MTMR1, Q13613], the negative-log Kd (pKd) result is “below the threshold” with LIN7C, Q9NUP9 (setting [3]); “below the threshold” with APBA1_2, Q02410 (setting [3]); 3.56 with DLG1_3, Q12959 (setting [3]).

As for KQVVPFSSSV [GDA, Q9Y2T3], the negative-log Kd (pKd) result in the test with LIN7C, Q9NUP9 (setting [1]) was “below the threshold”; in the test with APBA1_2, Q02410 (setting [1]), “below the threshold”; in the test with DLG1_3, Q12959 (setting [1]) it was “below the threshold”.

For NPDALPETLV [ARHGAP6, O43182], the pKd in the test with LIN7C, Q9NUP9 (setting [1]) was 4.31; with APBA1_2, Q02410 (setting [1]) it was “below the threshold”; in the test with DLG1_3, Q12959 (setting [1]), 3.5.

With DAAHHDESNC [FMNL3, Q8IVF7], the pKd result is “below the threshold” in the test with LIN7C, Q9NUP9 (setting [2]); “below the threshold” with APBA1_2, Q02410 (setting [2]); “below the threshold” with DLG1_3, Q12959 (setting [2]).

For SNAKAVETDV [KCNA4, P22459], the pKd result was “below the threshold” in the test with LIN7C, Q9NUP9 (setting [4]); 3.5 with APBA1_2, Q02410 (setting [4]); “below the threshold” with DLG1_3, Q12959 (setting [4]).

As for SAPATLSSRA [PDLIM2, Q96JY6], the negative logarithm of the Kd (pKd) result was “below the threshold” with LIN7C, Q9NUP9 (setting [3]); “below the threshold” with APBA1_2, Q02410 (setting [3]); “below the threshold” in the test with DLG1_3, Q12959 (setting [3]).

In the case of SQDPKKPSRV [CBY2, Q8NA61], the negative logarithm of the Kd (pKd) entry is “below the threshold” in the test with LIN7C, Q9NUP9 (setting [2]); 3.97 with APBA1_2, Q02410 (setting [2]); “below the threshold” in the test with DLG1_3, Q12959 (setting [2]).

As to VNENQKEYFF [CNTNAP4, Q9C0A0], the negative logarithm of the Kd (pKd) entry with LIN7C, Q9NUP9 (setting [3]) is “below the threshold”; with APBA1_2, Q02410 (setting [3]), 4.47; with DLG1_3, Q12959 (setting [3]) it was “below the threshold”.

For QRPYRRESEI [KCNJ12, Q14500], the pKd entry is “below the threshold” with LIN7C, Q9NUP9 (setting [1]); “below the threshold” with APBA1_2, Q02410 (setting [1]); 4.08 in the test with DLG1_3, Q12959 (setting [1]).

Regarding DLDEEEDTHL [PODXL, O00592], the negative-log Kd (pKd) result with LIN7C, Q9NUP9 (setting [1]) is “below the threshold”; in the test with APBA1_2, Q02410 (setting [1]) it was “below the threshold”; in the test with DLG1_3, Q12959 (setting [1]) it was “below the threshold”.

As to PKMKLNETSF [SHKBP1, Q8TBC3], the pKd was 3.49 with LIN7C, Q9NUP9 (setting [3]); “below the threshold” with APBA1_2, Q02410 (setting [3]); “below the threshold” with DLG1_3, Q12959 (setting [3]).

For GARVSKETPL [MAPK12, P53778], the pKd entry was “below the threshold” with LIN7C, Q9NUP9 (setting [1]); 3.74 in the test with APBA1_2, Q02410 (setting [1]); 3.95 in the test with DLG1_3, Q12959 (setting [1]).

KDECVIATEV [DLL1, O00548]: the pKd result with LIN7C, Q9NUP9 (setting [3]) was “below the threshold”; with APBA1_2, Q02410 (setting [3]), 3.99; in the test with DLG1_3, Q12959 (setting [3]) it was “below the threshold”.

GRLLGLETNV [ARHGEF26, Q96DR7]: the negative-log Kd (pKd) in the test with LIN7C, Q9NUP9 (setting [1]) worked out at 3.72; in the test with APBA1_2, Q02410 (setting [1]), 4.23; in the test with DLG1_3, Q12959 (setting [1]), 4.92.

With AKPQPVDSWV [ARVCF, O00192], the negative logarithm of the Kd (pKd) entry in the test with LIN7C, Q9NUP9 (setting [3]) was “below the threshold”; with APBA1_2, Q02410 (setting [3]), 4.62; in the test with DLG1_3, Q12959 (setting [3]), “below the threshold”.

For the molecule YNSFLSVTTV [PDZRN3, Q9UPQ7], the pKd in the test with LIN7C, Q9NUP9 (setting [3]) is 3.47; in the test with APBA1_2, Q02410 (setting [3]), “below the threshold”; with DLG1_3, Q12959 (setting [3]) it was 3.83.

For the molecule EKPIDSETKM [SLC1A3, P43003], the pKd result with LIN7C, Q9NUP9 (setting [2]) is “below the threshold”; in the test with APBA1_2, Q02410 (setting [2]), “below the threshold”; with DLG1_3, Q12959 (setting [2]), “below the threshold”.

With ELKAEDEVQI [DCHS2, Q6V1P9], the pKd entry was “below the threshold” in the test with LIN7C, Q9NUP9 (setting [2]); “below the threshold” in the test with APBA1_2, Q02410 (setting [2]); “below the threshold” with DLG1_3, Q12959 (setting [2]).
